Reference: patent US5879896A, “Method of screening for inhibitors of human thyrotropin releasing hormone (TRH) receptor” (Takeda Chemical Industries, Ltd., priority 1993, dated 1999)
Where two headings read alike, the source gives them in different places. Square brackets hold non-standard residues; d marks the D form. Ends that are not written are not given here. Peptide text beside a SMILES is read from it. Blc = γ-butyrolactone-γ-carbonyl group; pGlu = O=C1CC[C@@H](C(=O)O)N1; ΔPro = O=C(O)[C@@H]1C=CCN1; Nva = CCC[C@H](N)C(=O)O; His(3-Me) = 3-Me-His

Experiments:
human TRH receptor = target: T1, human TRH receptor (Homo sapiens, UniProt P34981); assay: Antagonism of [3H]TRH binding in CHO dhfr- cells transformed with human TRH receptor DNA (Examples 5 and 6); design: translation frame (open reading frame) of the human TRH receptor was constructed on pUC118; expressed in transfected cells; host or cells: CHO dhfr- cells (plasmid pAKKO1.11 with the human TRH receptor open reading frame); conditions: for inhibition at 10 µM / inhibition at 100 µM / inhibition at 1000 µM: 1 h; for Antagonistic binding activity to the human TRH receptor, in words: benzodiazepine compounds, 10 μM to 1 mM; for Antagonistic Rate (%) at Each Concentration (-log M): 60 min
T1 sequence (P34981 1-398): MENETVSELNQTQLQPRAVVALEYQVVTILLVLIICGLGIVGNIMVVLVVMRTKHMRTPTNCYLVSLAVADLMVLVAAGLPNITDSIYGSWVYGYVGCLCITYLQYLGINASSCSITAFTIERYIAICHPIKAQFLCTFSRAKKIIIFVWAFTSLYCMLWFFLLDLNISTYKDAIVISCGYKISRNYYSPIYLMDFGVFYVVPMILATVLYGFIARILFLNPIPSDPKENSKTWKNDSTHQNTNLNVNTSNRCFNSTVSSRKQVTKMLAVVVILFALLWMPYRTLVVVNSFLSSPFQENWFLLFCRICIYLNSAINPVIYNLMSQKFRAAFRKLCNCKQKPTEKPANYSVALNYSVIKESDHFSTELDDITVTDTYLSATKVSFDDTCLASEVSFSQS

CHO dhfr- cells = assay: [3H]TRH binding to CHO dhfr- cell line into which no human TRH receptor DNA was introduced (Example 4); design: species or system Chinese hamster; conditions: no human TRH receptor DNA introduced (FIG. 9)
Experimental: This plasmid was cleaved with SalI and ClaI. The plasmid obtained in Example 3 in which the translation frame (open reading frame) of the human TRH receptor was constructed on pUC118 was cleaved with HindIII, and repaired with a Klenow fragment, followed by addition of an SalI linker. The resulting fragment was further cleaved with SmaI, and a fragment containing the translation frame (open reading frame) of the human TRH receptor and a ClaI linker were added thereto. This was cleaved with SalI and ClaI, and thereafter, the plasmid DNA previously cleaved with SalI and ClaI was bound thereto to complete an expression plasmid. This plasmid DNA was purified by cesium chloride equilibrium density gradient centrifugation, and partially introduced into the CHO dhfr^- cell line with a gene introduction kit (CellPhect, Pharmacia) by the calcium phosphate precipitation method. The original CHO dhfr^- cell line is impossible to grow in a medium not containing a nucleoside and a nucleotide, because of lack of dhfr phenotype. […] The cells were dissolved in 500 μl of 1% SDS and 0.2N NaOH, and the radioactivity contained therein was measured by use of liquid scintillator A. In order to know the non-specific binding, a group was also prepared to which non-labeled TRH was added to a final concentration of 10 μM in addition to [^3 H] […]

[1] = target: T2, human TRH receptor protein (human); assay: competition with 18.3 nM 3H-TRH, CHO cells expressing human TRH receptor; compound at 10^-5 M
T2 chain: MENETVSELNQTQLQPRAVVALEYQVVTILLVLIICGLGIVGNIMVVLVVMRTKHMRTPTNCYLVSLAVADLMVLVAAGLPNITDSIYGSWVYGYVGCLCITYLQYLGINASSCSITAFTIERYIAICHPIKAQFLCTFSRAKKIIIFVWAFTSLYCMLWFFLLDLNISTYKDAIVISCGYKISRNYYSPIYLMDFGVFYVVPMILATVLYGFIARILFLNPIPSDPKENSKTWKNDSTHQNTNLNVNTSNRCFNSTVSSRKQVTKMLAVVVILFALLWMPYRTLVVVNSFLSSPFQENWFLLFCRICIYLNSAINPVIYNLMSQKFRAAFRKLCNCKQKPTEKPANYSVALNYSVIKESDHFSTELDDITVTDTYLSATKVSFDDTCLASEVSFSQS
Experimental: (§1) In Table 2, the degree of a reduction in the binding of [^3H] TRH in the case where the TRH analogous compound having respective concentrations was added to the total binding of [^3H] TRH in the case where no TRH analogous compound existed was indicated as percentage. The specific activity of [^3H] TRH used in the experiment was 83.04 Ci/mmol, and this was added to give a concentration of 10 nM in the reaction solution. For the compounds indicated by (*1) in the table, the specific activity of [^3H] TRH was 45 Ci/mmol, and this was added to give a concentration of 18.3 nM in the reaction solution.

[2] = target: T2, human TRH receptor protein; assay: competition with 18.3 nM 3H-TRH, CHO cells expressing human TRH receptor; compound at 10^-9 M
Experimental: as §1

[3] = target: T2, human TRH receptor protein; assay: competition with 18.3 nM 3H-TRH, CHO cells expressing human TRH receptor; compound at 10^-7 M
Experimental: as §1

[4] = target: T2, human TRH receptor protein; assay: competition with 18.3 nM 3H-TRH, CHO cells expressing human TRH receptor; compound at 10^-8 M
Experimental: as §1

[5] = target: T2, human TRH receptor protein; assay: competition with 18.3 nM 3H-TRH, CHO cells expressing human TRH receptor; compound at 10^-10 M
Experimental: as §1

[6] = target: T2, human TRH receptor protein; assay: competition with 18.3 nM 3H-TRH, CHO cells expressing human TRH receptor; compound at 10^-6 M
Experimental: as §1

[7] = target: T2, human TRH receptor protein; assay: competition with 10 nM 3H-TRH, CHO cells expressing human TRH receptor; compound at 10^-11 M
Experimental: as §1

[8] = target: T2, human TRH receptor protein; assay: competition with 10 nM 3H-TRH, CHO cells expressing human TRH receptor; compound at 10^-8 M
[9] = target: T2, human TRH receptor protein; assay: competition with 10 nM 3H-TRH, CHO cells expressing human TRH receptor; compound at 10^-10 M
Experimental: as §1

[10] = target: T2, human TRH receptor protein; assay: competition with 10 nM 3H-TRH, CHO cells expressing human TRH receptor; compound at 10^-9 M
[11] = target: T2, human TRH receptor protein; assay: competition with 10 nM 3H-TRH, CHO cells expressing human TRH receptor; compound at 10^-5 M
[12] = target: T2, human TRH receptor protein; assay: competition with 10 nM 3H-TRH, CHO cells expressing human TRH receptor; compound at 10^-12 M
Experimental: as §1

[13] = target: T2, human TRH receptor protein; assay: competition with 10 nM 3H-TRH, CHO cells expressing human TRH receptor; compound at 10^-4 M
[14] = target: T2, human TRH receptor protein; assay: competition with 10 nM 3H-TRH, CHO cells expressing human TRH receptor; compound at 10^-6 M
Experimental: as §1

[15] = target: T2, human TRH receptor protein; assay: competition with 10 nM 3H-TRH, CHO cells expressing human TRH receptor; compound at 10^-7 M
Experimental: as §1

[16] = read-out: Antagonistic activity (TABLE 1; percentage to that of the control)
[17] = -log M = 4, 10 nM [3H]TRH, read-out: Antagonistic Rate (%) at Each Concentration (-log M)
[18] = -log M = 5, 10 nM [3H]TRH, read-out: Antagonistic Rate (%) at Each Concentration (-log M)

For `CNC1=Nc2ccc(Cl)cc2C(c2ccccc2)=[N+]([O-])C1` [Chlordiazepoxide, chlordiazepoxide], the inhibition at 10 µM (human TRH receptor; [16]) was -2.2%, the inhibition at 100 µM (human TRH receptor; [16]) was 7.1% and the inhibition at 1000 µM (human TRH receptor; [16]) was 46.8%. For the same molecule, the “Antagonistic binding activity to the human TRH receptor, in words” value (shortened to “Antagonistic binding activity”) (human TRH receptor) was “antagonistic activity increased in order of midazolam, chlordiazepoxide and oxazepam”.

Molecule `O=C1N[C@@H](Cc2c[nH]cn2)C(=O)N2CCC[C@@H]12` [Compound 2, Cyclo(His--Pro) His Pro-Diketopiperazine] has an inhibition at 100 µM (human TRH receptor; [17]) of -1.1% and an inhibition at 10 µM (human TRH receptor; [18]) of 0.6%.

`NC(=O)[C@@H]1CCCN1C(=O)[C@H](Cc1ccccc1)NC(=O)[C@@H]1CCC(=O)N1` [Compound 14, pGlu Phe Pro NH2] ([pGlu]-Phe-Pro-NH2) was tested, and the inhibition at 100 µM (human TRH receptor; [17]) was 96.2% and the inhibition at 10 µM (human TRH receptor; [18]) was 74.2%.

For `CCC[C@H](NC(=O)[C@@H]1CCC(=O)N1)C(=O)N1CCC[C@H]1C(N)=O` [Compound 15, pGlu NVal Pro NH2] ([pGlu]-[Nva]-Pro-NH2), the inhibition at 100 µM (human TRH receptor; [17]) was 78.6% and the inhibition at 10 µM (human TRH receptor; [18]) was 33.4%.

`CN1C(=O)CN=C(c2ccccc2F)c2cc([N+](=O)[O-])ccc21` [Flunitrazepam, flunitrazepam] gave an inhibition at 10 µM (human TRH receptor; [16]) of -0.5%, an inhibition at 100 µM (human TRH receptor; [16]) of -4% and an inhibition at 1000 µM (human TRH receptor; [16]) of -13.7%. For the same molecule, the “Antagonistic binding activity” value (human TRH receptor) was “no antagonistic binding was observed at all”.

With `Cc1ncc2n1-c1ccc(Cl)cc1C(c1ccccc1F)=NC2` [Midazolam, midazolam] the inhibition at 10 µM (human TRH receptor; [16]) was 2.6%, the inhibition at 100 µM (human TRH receptor; [16]) was 12% and the inhibition at 1000 µM (human TRH receptor; [16]) was 69.7%. The “Antagonistic binding activity” value (human TRH receptor) was “antagonistic activity increased in order of midazolam, chlordiazepoxide and oxazepam”.

For “[L-proline-2,3,4,5-^3 H(N)]-(Pyro)Glu-His-Pro-NH2 [[^3 H] TRH]”, the “Specific binding, in words” value (CHO dhfr- cells) was “no specific binding was detected at all”.

With “pGlu His Pro Gly Lys ([pGlu]HPGK) [Compound 3]” the “Antagonistic Rate (%) at Each Concentration (-log M)” value (human TRH receptor; -log M = 5, 10 nM [3H]TRH) was 31.9% and the “Antagonistic Rate (%) at Each Concentration (-log M)” value (human TRH receptor; -log M = 6, 10 nM [3H]TRH, 1 µM) was -0.6%.

For Glu-His-Pro-NH2 [Glu His Pro NH2], the “Antagonistic Rate (%)” value [1] was 95.3%, the “Antagonistic Rate (%)” value [2] was 1% and the “Antagonistic Rate (%)” value [3] was 19.7%. For the same molecule, the “Antagonistic Rate (%)” value [4] was 1.8%, the “Antagonistic Rate (%)” value [5] was 2% and the “Antagonistic Rate (%)” value [6] was 70.7%.

[pGlu]-[His(3-Me)]-Pro-NH2 [pGlu 3-Me-His Pro NH2] was tested, and the “Antagonistic Rate (%)” value [7] was -7.1%, the “Antagonistic Rate (%)” value [8] was 85% and the “Antagonistic Rate (%)” value [9] was -4.4%. The “Antagonistic Rate (%)” value [10] was 20%, the “Antagonistic Rate (%)” value [11] was 97.9% and the “Antagonistic Rate (%)” value [12] was -6.5%.

For [pGlu]-His-[ΔPro]-NH2 (SMILES NC(=O)[C@@H]1C=CCN1C(=O)[C@H](Cc1c[nH]cn1)NC(=O)[C@@H]1CCC(=O)N1) [pGlu His 3,4-dihydro-Pro NH2], the “Antagonistic Rate (%)” value [1] was 99.7%, the “Antagonistic Rate (%)” value [2] was 7% and the “Antagonistic Rate (%)” value [3] was 84.6%. The “Antagonistic Rate (%)” value [4] was 39.1%, the “Antagonistic Rate (%)” value [5] was 2.2% and the “Antagonistic Rate (%)” value [6] was 98.3%.

With [pGlu]-Phe-Pro-NH2 [pGlu Phe Pro NH2] the “Antagonistic Rate (%)” value [13] was 96.2% and the “Antagonistic Rate (%)” value [11] was 74.2%.

With [pGlu]-His-Pro-NH2 [TRH (pGlu His Pro NH2)] the “Antagonistic Rate (%)” value [7] was 0.7%, the “Antagonistic Rate (%)” value [1] was 99.7% and the “Antagonistic Rate (%)” value [2] was 4.2%. For the same molecule, the “Antagonistic Rate (%)” value [8] was 52%, the “Antagonistic Rate (%)” value [9] was 0.3% and the “Antagonistic Rate (%)” value [3] was 83.9%. The “Antagonistic Rate (%)” value [4] was 39.8%, the “Antagonistic Rate (%)” value [10] was 7.2% and the “Antagonistic Rate (%)” value [11] was 99.7%. For the same molecule, the “Antagonistic Rate (%)” value [5] was -0.7%, the “Antagonistic Rate (%)” value [14] was 98.7% and the “Antagonistic Rate (%)” value [15] was 90.7%. The “Antagonistic Rate (%)” value [12] was 0% and the “Antagonistic Rate (%)” value [6] was 97.8%.

[pGlu]-His-Pro [pGLU His Pro] was tested, and the “Antagonistic Rate (%)” value [13] was 40.8% and the “Antagonistic Rate (%)” value [11] was 11.8%.

For HP (cyclic dipeptide (diketopiperazine) of His and Pro) [Cyclo(His--Pro) His Pro-Diketopiperazine], the “Antagonistic Rate (%)” value [13] was -1.1% and the “Antagonistic Rate (%)” value [11] was 0.6%.

[pGlu]-Glu-Pro-NH2 (SMILES NC(=O)[C@@H]1CCCN1C(=O)[C@H](CCC(=O)O)NC(=O)[C@@H]1CCC(=O)N1) [pGlu Glu Pro NH2] was tested, and the “Antagonistic Rate (%)” value [11] was -2.9%.

In the case of [pGlu]-[Nva]-Pro-NH2 (SMILES CCC[C@H](NC(=O)[C@@H]1CCC(=O)N1)C(=O)N1CCC[C@H]1C(N)=O) [pGlu NVal Pro NH2], the “Antagonistic Rate (%)” value [13] is reported as 78.6% and the “Antagonistic Rate (%)” value [11] is reported as 33.4%.

In the case of Blc-His-Pro [Blc His Pro], the “Antagonistic Rate (%)” value [13] is reported as 0.7% and the “Antagonistic Rate (%)” value [11] is reported as -0.1%.
